We go through two molecules from paper PMC9464890, “Exosite binding modulates the specificity of the immunomodulatory enzyme ScpA, a C5a inactivating bacterial protease” (Computational and Structural Biotechnology Journal, 2022).

One assay addresses R40A_(core) (human). In words: SPR; as a1 (NTA chip, immobilised His-tagged C5a form, D783A_(S512A) flowed, 25 °C, Hepes buffer), but KD from fitting of the response units at equilibrium because of very fast dissociation; triplicate. In general terms: In SPR one partner is held on a chip, and binding of the other changes the refractive index at the surface.
The target of another assay is rhC5a_(R40A) (human). The description is as above.
The target in the next assay is rhC5a_(R37A) (human). The description is as above.
The target of the next assay is R37A_(core) (human). The assay is described as above.
The next assay addresses R46A_(core) (human). Described as above.
A further assay deals with rhC5a_(R46A) (human). The description is as above.
A further assay addresses rhC5a_(core) (human). In words: SPR; BIAcore X100, NTA sensor chip with about 20-25 RU of immobilised His-tagged C5a form (ligand), ScpA form flowed as ligate at 30 uL/min, 25 °C, 10 mM Hepes-KOH pH 7.4, 150 mM NaCl, 0.005% Tween 20, 50 uM EDTA; global fit, 1:1 Langmuir model with drifting baseline; triplicate.
Assay [1] deals with T1, ScpAΔFn123 (Streptococcus pyogenes) (UniProt P15926).
T1 sequence: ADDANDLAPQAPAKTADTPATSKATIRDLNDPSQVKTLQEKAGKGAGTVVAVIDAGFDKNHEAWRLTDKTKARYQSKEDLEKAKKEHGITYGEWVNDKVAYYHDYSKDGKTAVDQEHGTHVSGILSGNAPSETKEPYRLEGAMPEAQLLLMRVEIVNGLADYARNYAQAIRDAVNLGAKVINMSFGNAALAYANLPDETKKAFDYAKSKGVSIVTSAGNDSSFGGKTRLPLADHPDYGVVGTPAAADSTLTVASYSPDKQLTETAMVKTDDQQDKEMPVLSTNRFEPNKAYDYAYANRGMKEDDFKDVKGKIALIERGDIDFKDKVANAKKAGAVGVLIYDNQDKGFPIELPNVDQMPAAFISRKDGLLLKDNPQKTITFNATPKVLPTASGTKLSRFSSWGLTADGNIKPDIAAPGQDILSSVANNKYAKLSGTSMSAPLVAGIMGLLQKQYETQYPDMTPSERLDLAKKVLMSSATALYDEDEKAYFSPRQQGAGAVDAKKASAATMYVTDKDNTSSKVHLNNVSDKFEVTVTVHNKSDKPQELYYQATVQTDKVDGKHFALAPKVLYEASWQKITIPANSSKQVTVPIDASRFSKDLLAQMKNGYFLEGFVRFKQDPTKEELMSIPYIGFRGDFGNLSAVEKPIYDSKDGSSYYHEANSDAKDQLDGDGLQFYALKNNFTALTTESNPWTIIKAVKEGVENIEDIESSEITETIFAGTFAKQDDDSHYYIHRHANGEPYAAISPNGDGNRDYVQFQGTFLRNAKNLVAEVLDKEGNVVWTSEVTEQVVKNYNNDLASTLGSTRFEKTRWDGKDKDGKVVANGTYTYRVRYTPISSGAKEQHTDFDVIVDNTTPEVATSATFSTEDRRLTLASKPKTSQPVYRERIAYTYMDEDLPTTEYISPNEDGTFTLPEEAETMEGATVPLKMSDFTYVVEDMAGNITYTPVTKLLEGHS

B1: ScpA_(S512A,D783A) (enzyme)
chain: ANTVTEDTPVTEQAVETPQPTAVSEEVPSSKETKTPQTPDDAEETIADDANDLAPQAPAKTADTPATSKATIRDLNDPSQVKTLQEKAGKGAGTVVAVIDAGFDKNHEAWRLTDKTKARYQSKEDLEKAKKEHGITYGEWVNDKVAYYHDYSKDGKTAVDQEHGTHVSGILSGNAPSETKEPYRLEGAMPEAQLLLMRVEIVNGLADYARNYAQAIRDAVNLGAKVINMSFGNAALAYANLPDETKKAFDYAKSKGVSIVTSAGNDSSFGGKTRLPLADHPDYGVVGTPAAADSTLTVASYSPDKQLTETAMVKTDDQQDKEMPVLSTNRFEPNKAYDYAYANRGMKEDDFKDVKGKIALIERGDIDFKDKVANAKKAGAVGVLIYDNQDKGFPIELPNVDQMPAAFISRKDGLLLKDNPQKTITFNATPKVLPTASGTKLSRFSSWGLTADGNIKPDIAAPGQDILSSVANNKYAKLSGTAMSAPLVAGIMGLLQKQYETQYPDMTPSERLDLAKKVLMSSATALYDEDEKAYFSPRQQGAGAVDAKKASAATMYVTDKDNTSSKVHLNNVSDKFEVTVTVHNKSDKPQELYYQATVQTDKVDGKHFALAPKVLYEASWQKITIPANSSKQVTVPIDASRFSKDLLAQMKNGYFLEGFVRFKQDPTKEELMSIPYIGFRGDFGNLSAVEKPIYDSKDGSSYYHEANSDAKDQLDGDGLQFYALKNNFTALTTESNPWTIIKAVKEGVENIEAIESSEITETIFAGTFAKQDDDSHYYIHRHANGEPYAAISPNGDGNRDYVQFQGTFLRNAKNLVAEVLDKEGNVVWTSEVTEQVVKNYNNDLASTLGSTRFEKTRWDGKDKDGKVVANGTYTYRVRYTPISSGAKEQHTDFDVIVDNTTPEVATSATFSTEDRRLTLASKPKTSQPVYRERIAYTYMDEDLPTTEYISPNEDGTFTLPEEAETMEGATVPLKMSDFTYVVEDMAGNITYTPVTKLLEGHS
As for B1, the dissociation constant (Kd) was above 15000 nM with R40A_(core) (human); 1500 nM with rhC5a_(R40A) (human); 2000 nM with rhC5a_(R37A) (human); above 10000 nM with R37A_(core) (human); 4330 nM with R46A_(core) (human); 669 nM with rhC5a_(R46A) (human). The molecule further gave a Kd with rhC5a_(core) (human) of 1970 nM. For the same molecule, the koff with rhC5a_(core) (human) came out at 0.0216 s⁻¹. Moreover, the on-rate (kon) with rhC5a_(core) (human) came out at 11000 M⁻¹ s⁻¹.

B2: Fn123 (domain or fragment)
chain: ADDANDLAPQAPAKTADTPATSKATIRDLNDPSQVKTLQEKAGKGAGTVVAVIDAGFDKNHEAWRLTDKTKARYQSKEDLEKAKKEHGITYGEWVNDKVAYYHDYSKDGKTAVDQEHGTHVSGILSGNAPSETKEPYRLEGAMPEAQLLLMRVEIVNGLADYARNYAQAIRDAVNLGAKVINMSFGNAALAYANLPDETKKAFDYAKSKGVSIVTSAGNDSSFGGKTRLPLADHPDYGVVGTPAAADSTLTVASYSPDKQLTETAMVKTDDQQDKEMPVLSTNRFEPNKAYDYAYANRGMKEDDFKDVKGKIALIERGDIDFKDKVANAKKAGAVGVLIYDNQDKGFPIELPNVDQMPAAFISRKDGLLLKDNPQKTITFNATPKVLPTASGTKLSRFSSWGLTADGNIKPDIAAPGQDILSSVANNKYAKLSGTSMSAPLVAGIMGLLQKQYETQYPDMTPSERLDLAKKVLMSSATALYDEDEKAYFSPRQQGAGAVDAKKASAATMYVTDKDNTSSKVHLNNVSDKFEVTVTVHNKSDKPQELYYQATVQTDKVDGKHFALAPKVLYEASWQKITIPANSSKQVTVPIDASRFSKDLLAQMKNGYFLEGFVRFKQDPTKEELMSIPYIGFRGDFGNLSAVEKPIYDSKDGSSYYHEANSDAKDQLDGDGLQFYALKNNFTALTTESNPWTIIKAVKEGVENIEDIESSEITETIFAGTFAKQDDDSHYYIHRHANGEPYAAISPNGDGNRDYVQFQGTFLRNAKNLVAEVLDKEGNVVWTSEVTEQVVKNYNNDLASTLGSTRFEKTRWDGKDKDGKVVANGTYTYRVRYTPISSGAKEQHTDFDVIVDNTTPEVATSATFSTEDRRLTLASKPKTSQPVYRERIAYTYMDEDLPTTEYISPNEDGTFTLPEEAETMEGATVPLKMSDFTYVVEDMAGNITYTPVTKLLEGHS
As to B2, in assay [1], the C5a-ase activity of ScpAΔFn123 complemented with Fn123, end-point assay, relative to the wild-type enzyme (data not shown) worked out at 0.1%.

What is called Kd is the constant that tells how readily two partners part at equilibrium. Low values mean tighter binding, high ones weaker binding. What is called koff is a measure of how fast the partners let go of each other. Read a low koff as a long-lived complex. The kon is the rate constant with which the complex forms. Read a low kon as slow association.
